Details in all cases: protein: recombinant; tags: Ni-chelate purified; hairpin with mid-helix bulge C and hexaloop
Data set [1] concerns the target T1, IRP1 (iron regulatory protein 1) (rabbit, UniProt Q01059 1-889).
T1 sequence: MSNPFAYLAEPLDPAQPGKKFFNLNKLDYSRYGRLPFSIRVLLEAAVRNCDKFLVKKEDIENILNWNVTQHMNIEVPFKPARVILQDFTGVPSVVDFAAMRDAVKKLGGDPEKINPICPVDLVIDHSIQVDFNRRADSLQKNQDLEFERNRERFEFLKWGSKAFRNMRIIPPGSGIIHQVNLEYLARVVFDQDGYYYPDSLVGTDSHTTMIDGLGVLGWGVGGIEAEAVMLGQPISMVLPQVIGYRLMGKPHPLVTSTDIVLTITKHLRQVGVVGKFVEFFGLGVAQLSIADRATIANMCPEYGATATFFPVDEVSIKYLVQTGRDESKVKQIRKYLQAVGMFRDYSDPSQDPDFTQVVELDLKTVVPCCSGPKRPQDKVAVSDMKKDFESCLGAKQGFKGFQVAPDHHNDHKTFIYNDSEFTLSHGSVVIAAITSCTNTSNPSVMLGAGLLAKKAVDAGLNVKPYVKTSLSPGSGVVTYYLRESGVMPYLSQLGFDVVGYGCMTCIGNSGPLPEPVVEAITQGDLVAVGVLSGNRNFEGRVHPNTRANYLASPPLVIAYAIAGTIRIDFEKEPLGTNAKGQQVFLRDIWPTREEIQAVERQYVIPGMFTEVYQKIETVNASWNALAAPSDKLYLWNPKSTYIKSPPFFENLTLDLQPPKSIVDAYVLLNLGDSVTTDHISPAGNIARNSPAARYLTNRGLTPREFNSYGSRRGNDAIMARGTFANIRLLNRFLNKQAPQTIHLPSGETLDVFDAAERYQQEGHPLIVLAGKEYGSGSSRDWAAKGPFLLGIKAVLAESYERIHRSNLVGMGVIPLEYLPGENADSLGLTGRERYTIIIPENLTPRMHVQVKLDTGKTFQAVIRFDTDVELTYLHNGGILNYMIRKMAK
Put plainly: stopped-flow fluorescence anisotropy (koff/kon); no Mn2+, 100 mM KCl; kon 400 uM-1 s-1, koff 6.2 s-1; 40 mM HEPES pH 7.2, 100 mM KCl, 1 mM MgCl2 (Methods; not listed in the Figure 2 legend), 5% glycerol, 2% 2-mercaptoethanol, 25 C; RNA 50 nM with IRP1 0.05-1 uM; eIF4F 0.1 uM with RNA 0.1-0.5 uM. On the technique in general: Polarisation of emitted light reports the rotation of a fluorescent probe.

Data set [2] concerns the target T1, IRP1 (iron regulatory protein 1). Put plainly: stopped-flow fluorescence anisotropy (koff/kon); 150 mM KCl; kon 209, koff 6.3; 40 mM HEPES pH 7.2, 100 mM KCl, 1 mM MgCl2 (Methods; not listed in the Figure 2 legend), 5% glycerol, 2% 2-mercaptoethanol, 25 C; RNA 50 nM with IRP1 0.05-1 uM; eIF4F 0.1 uM with RNA 0.1-0.5 uM.
Data set [3] has the same target. The data set can be described thus: stopped-flow fluorescence anisotropy (koff/kon); 5 uM Mn2+; kon 176, koff 9.7; 40 mM HEPES pH 7.2, 100 mM KCl, 1 mM MgCl2 (Methods; not listed in the Figure 2 legend), 5% glycerol, 2% 2-mercaptoethanol, 25 C; RNA 50 nM with IRP1 0.05-1 uM; eIF4F 0.1 uM with RNA 0.1-0.5 uM.
For data set [4] the target is unchanged. The data set can be described thus: stopped-flow fluorescence anisotropy (koff/kon); 5 uM Mn2+; kon 35.2, koff 7.6; 40 mM HEPES pH 7.2, 100 mM KCl, 1 mM MgCl2 (Methods; not listed in the Figure 2 legend), 5% glycerol, 2% 2-mercaptoethanol, 25 C; RNA 50 nM with IRP1 0.05-1 uM; eIF4F 0.1 uM with RNA 0.1-0.5 uM.
Data set [5] shares this target. Put plainly: stopped-flow fluorescence anisotropy (koff/kon); no Mn2+, 100 mM KCl; kon 51.5 uM-1 s-1, koff 7.0 s-1; 40 mM HEPES pH 7.2, 100 mM KCl, 1 mM MgCl2 (Methods; not listed in the Figure 2 legend), 5% glycerol, 2% 2-mercaptoethanol, 25 C; RNA 50 nM with IRP1 0.05-1 uM; eIF4F 0.1 uM with RNA 0.1-0.5 uM.
The target is the same in data set [6]. The data set can be described thus: stopped-flow fluorescence anisotropy (koff/kon); 150 mM KCl; kon 39, koff 7.4; 40 mM HEPES pH 7.2, 100 mM KCl, 1 mM MgCl2 (Methods; not listed in the Figure 2 legend), 5% glycerol, 2% 2-mercaptoethanol, 25 C; RNA 50 nM with IRP1 0.05-1 uM; eIF4F 0.1 uM with RNA 0.1-0.5 uM.

The Kd is the constant that tells how readily two partners part at equilibrium. For the molecule GUUCUUGCUUCAACAGUGUUUGAACGGAAC (structured_RNA) [FRT IRE-RNA, fluorescein labeled (FIFRT IRE-RNA)], the Kd worked out at 15.5 ± 0.5 nM in data set [1], 30 ± 0.7 nM in data set [2] and 55 ± 2.7 nM in data set [3].
As for CCUCAUCUUUGUCAGUGCACAAAAUGGCG (structured_RNA) [ACO2 IRE-RNA, fluorescein labeled (FIACO2 IRE-RNA)], the figures for the Kd in data set [4], in data set [5] and in data set [6] were 217 ± 7.6 nM, 136 ± 2.9 nM and 190 ± 9 nM, respectively.

The values above are taken from paper PMC4041422, “Rapid kinetics of iron responsive element (IRE) RNA/iron regulatory protein 1 and IRE-RNA/eIF4F complexes respond differently to metal ions”.
